Columns and labels:
[1] = biological target: HIV-1 CAP256 SU gp140 NFL, mammalian cell-produced (HEK293) (HIV-1 (CAP256 SU virus)); assay: SEC
[2] = biological target: HIV-1 CAP256 SU gp140 NFL, mammalian cell-produced (HEK293) (HIV-1 (CAP256 SU virus)); assay: native gel or EMSA; BN-PAGE of the pooled trimer fractions on 4-12% NativePAGE Bis-Tris gels, Coomassie-stained
[3] = biological target: HIV-1 CAP256 SU gp140 NFL, plant-produced (Nicotiana benthamiana) (HIV-1 (CAP256 SU virus)); assay: SEC

Substance	stoichiometry N [1]	stoichiometry N [2]	stoichiometry N [3]
HIV-1 CAP256 SU gp140 NFL, mammalian cell-produced (HEK293) (domain or fragment)	3	3	
HIV-1 CAP256 SU gp140 NFL, plant-produced (Nicotiana benthamiana) (domain or fragment)			3

From paper PMC8341435
